Measured values: patent US20230220080A1 (EPIMAB BIOTHERAPEUTICS, published 2023)

Experiments:
recombinant human IL-20 [1] = target: T1, recombinant human IL-20 (human, UniProt Q9NYY1 25-176); test: cell-based or functional assay
T1 sequence (looked up): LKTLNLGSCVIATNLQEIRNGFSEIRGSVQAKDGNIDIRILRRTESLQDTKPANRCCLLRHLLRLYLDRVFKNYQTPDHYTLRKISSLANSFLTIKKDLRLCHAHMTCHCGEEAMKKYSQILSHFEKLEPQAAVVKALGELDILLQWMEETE

recombinant human IL-17 [2] = target: T2, recombinant human IL-17 (human, UniProt Q16552 24-155); test: cell-based or functional assay
recombinant human IL-20 [3] = target: T1, recombinant human IL-20; test: SPR Biacore, Ig captured by anti-Fc, antigen injected
Description: (§1) The kinetics of FIT-Ig binding to rhIL-17 and rhIL-20 was determined by surface plasmon resonance (Table 5) with a Biacore X100 instrument (Biacore AB, Uppsala, Sweden) using HBS-EP (10 mM HEPES, pH 7.4, 150 mM NaCl, 3 mM EDTA, and 0.005% surfactant P20) at 25° C. Briefly, goat anti-human IgG Fcγ fragment specific polyclonal antibody (Pierce Biotechnology Inc, Rockford, Ill.) was directly immobilized across a CM5 research grade biosensor chip using a standard amine coupling kit according to manufacturer's instructions. Purified FIT-Ig samples were diluted in HEPES-buffered saline for capture across goat anti-human IgG Fc specific reaction surfaces and injected over reaction matrices at a flow rate of 5 μl/min. The association and dissociation rate constants, kon (M-1s-1) and koff (s-1) were determined under a continuous flow rate of 30 μL/min. […] The equilibrium dissociation constant (M) of the reaction between FIT-Ig and the target proteins was then calculated from the kinetic rate constants by the following formula: KD=koff/kon. Aliquots of antigen samples were also simultaneously injected over a blank reference and reaction CM surface to record and subtract any nonspecific binding background to eliminate the majority of the refractive index change and injection noise. Surfaces were regenerated with two subsequent 25 ml injections of 10 mM Glycine (pH 1.5) at a flow rate of 10 μL/min.

recombinant human IL-17 [4] = target: T2, recombinant human IL-17; test: as above
Description: as §1

[5] = target: T3, hFactor IX (Enzyme Research Laboratory) (human, UniProt P00740 47-461); test: SPR Biacore X100, Ig captured by anti-Fc, 500 nM antigen
T3 construct: also called FIX
Description: (§2) Affinity measurement by surface plasmon resonance: The kinetics of FIT-Ig binding to hFactor IX and hFactor X (Enzyme Research Laboratory) was determined by surface plasmon resonance with a Biacore X100 instrument (Biacore AB, Uppsala, Sweden) using HBS-EP (10 mM HEPES, pH 7.4, 150 mM NaCl, 3 mM EDTA, and 0.005% surfactant P20) at 25° C. Briefly, goat anti-human IgG Fc fragment specific polyclonal antibody (Pierce Biotechnology Inc, Rockford, Ill.) was directly immobilized across a CM5 research grade biosensor chip using a standard amine coupling kit according to manufacturer's instructions. Purified FIT-Ig samples were diluted in HEPES-buffered saline for capture across goat anti-human IgG Fc specific reaction surfaces and injected over reaction matrices at a flow rate of 5 μl/min. The association and dissociation rate constants, kon (M-1s-1) and koff (s-1) were determined under a continuous flow rate of 30 μL/min. Rate constants were derived by making kinetic binding measurements at 500 nM antigen concentrations. The equilibrium dissociation constant (M) of the reaction between FIT-Ig and the target proteins was then calculated from the kinetic rate constants by the following formula: KD=koff/kon. Aliquots of antigen samples were also simultaneously injected over a blank reference and reaction CM surface to record and subtract any nonspecific binding background to eliminate the majority of the refractive index change and injection noise. Surfaces were regenerated with two subsequent 25 ml injections of 10 mM Glycine (pH 1.5) at a flow rate of 10 μL/min. The anti-Fc antibody immobilized surfaces were completely regenerated and retained their full capture capacity over twelve cycles.

[6] = target: T4, hFactor X (Enzyme Research Laboratory) (human, UniProt P00742 41-488, limits assumed); test: as above
T4 construct: also called FX
Description: as §2

Factor IXa = Factor IXa (UniProt P00740 47-461, limits assumed); test: method not stated

T2 sequence (Q16552 24-155 limits assumed): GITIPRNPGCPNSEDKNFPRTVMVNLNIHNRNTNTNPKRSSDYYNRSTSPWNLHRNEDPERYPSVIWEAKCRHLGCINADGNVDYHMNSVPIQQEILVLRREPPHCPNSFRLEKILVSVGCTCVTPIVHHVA

B1: Anti-IL-17/IL-20 FIT1-Ig (bispecific antibody, human IgG1, kappa)
chain 1: not shown
chain 2: QVQLVQSGAEVKKPGSSVKVSCKASGYSFTDYHIHWVRQAPGQGLEWMGVINPMYGTTDYNQRFKGRVTITADESTSTAYMELSSLRSEDTAVYYCARYDYFTGTGVYWGQGTLVTVSSASTKGPSVFPLAPSSKSTSGGTAALGCLVKDYFPEPVTVSWNSGALTSGVHTFPAVLQSSGLYSLSSVVTVPSSSLGTQTYICNVNHKPSNTKVDKKVEPKSC
chain 3: not shown
notes: three-polypeptide FIT-Ig, no linker, human IgG1 Fc; described as tetravalent, so two copies of each chain
In the case of B1, the “Neutralization Potency IC50 (IL-20R+ BAF3 cell proliferation)” value (recombinant human IL-20 [1]) is reported as 54 pM, the “Neutralization Potency IC50 (GROα production by Hs27 cells)” value (recombinant human IL-17 [2]) is reported as 102 pM and the Kd (recombinant human IL-20 [3]) is reported as 27.3 pM. It also gave a koff (recombinant human IL-20 [3]) of 3.82e-05 s⁻¹, a kon (recombinant human IL-20 [3]) of 1.4e+06 M⁻¹ s⁻¹ and a Kd (recombinant human IL-17 [4]) of 3.64 pM. It also gave a koff (recombinant human IL-17 [4]) of 3.88e-05 s⁻¹ and a kon (recombinant human IL-17 [4]) of 1.07e+07 M⁻¹ s⁻¹.

B2: Anti-IL-17/IL-20 FIT2-Ig (bispecific antibody, human IgG1, kappa)
chain 1: not shown
chain 2: B1 chain 2
chain 3: not shown
notes: three-polypeptide FIT-Ig with GSG linker; tetravalent
B2 was tested, and the “Neutralization Potency IC50 (IL-20R+ BAF3 cell proliferation)” value (recombinant human IL-20 [1]) was 50 pM, the “Neutralization Potency IC50 (GROα production by Hs27 cells)” value (recombinant human IL-17 [2]) was 137 pM and the Kd (recombinant human IL-20 [3]) was 19.5 pM. The koff (recombinant human IL-20 [3]) was 3.5e-05 s⁻¹, the kon (recombinant human IL-20 [3]) was 1.8e+06 M⁻¹ s⁻¹ and the Kd (recombinant human IL-17 [4]) was 1.65 pM. It also gave a koff (recombinant human IL-17 [4]) of 1.53e-05 s⁻¹ and a kon (recombinant human IL-17 [4]) of 9.24e+06 M⁻¹ s⁻¹.

B3: Anti-IL-17/IL-20 FIT3-Ig (bispecific antibody, human IgG1, kappa)
chain 1: not shown
chain 2: B1 chain 2
chain 3: not shown
notes: three-polypeptide FIT-Ig with GGGGSGS linker; tetravalent
For B3, the “Neutralization Potency IC50 (IL-20R+ BAF3 cell proliferation)” value (recombinant human IL-20 [1]) was 72 pM, the “Neutralization Potency IC50 (GROα production by Hs27 cells)” value (recombinant human IL-17 [2]) was 146 pM and the Kd (recombinant human IL-20 [3]) was 27.3 pM. For the same binder, the koff (recombinant human IL-20 [3]) was 3.82e-05 s⁻¹, the kon (recombinant human IL-20 [3]) was 1.4e+06 M⁻¹ s⁻¹ and the Kd (recombinant human IL-17 [4]) was 1.1 pM. For the same binder, the koff (recombinant human IL-17 [4]) was 9.58e-06 s⁻¹ and the kon (recombinant human IL-17 [4]) was 8.71e+06 M⁻¹ s⁻¹.

B4: FIT014a Factor IX (Factor IX Ab)/Factor X (Factor X Ab) (bispecific antibody, human IgG4 S228P, kappa)
chain 1: DIQMTQSPSSLSASVGDRVTITCKASRNIERQLAWYQQKPGQAPELLIYQASRKESGVPDRFSGSRYGTDFTLTISSLQPEDIATYYCQQYSDPPLTFGGGTKVEIKRTVAAPSVFIFPPSDEQLKSGTASVVCLLNNFYPREAKVQWKVDNALQSGNSQESVTEQDSKDSTYSLSSTLTLSKADYEKHKVYACEVTHQGLSSPVTKSFNRGECQVQLVQSGSELKKPGASVKVSCKASGYTFTDNNMDWVRQAPGQGLEWMGDINTRSGGSIYNEEFQDRVIMTVDKSTDTAYMELSSLRSEDTATYHCARRKSYGYYLDEWGEGTLVTVSSASTKGPSVFPLAPCSRSTSESTAALGCLVKDYFPEPVTVSWNSGALTSGVHTFPAVLQSSGLYSLSSVVTVPSSSLGTQTYTCNVDHKPSNTKVDKRVESKYGPPCPPCPAPEFLGGPSVFLFPPKPKDTLMISRTPEVTCVVVDVSQEDPEVQFNWYVDGVEVHNAKTKPREEQYNSTYRVVSVLTVLHQDWLNGKEYKCKVSNKGLPSSIEKTISKAKGQPREPQVYTLPPSQEEMTKNQVSLTCLVKGFYPSDIAVEWESNGQPENNYKTTPPVLDSDGSFFLYSKLTVDKSRWQEGNVFSCSVMHEALHNHYTQESLSLSP
chain 2: QVQLVESGGGLVQPGGSLRLSCAASGFTFSYYDIQWVRQAPGKGLEWVSSISPSGQSTYYRREVKGRFTISRDNSKNTLYLQMNSLRAEDTAVYYCARRTGREYGGGWYFDYWGQGTLVTVSSASTKGPSVFPLAPSSKSTSGGTAALGCLVKDYFPEPVTVSWNSGALTSGVHTFPAVLQSSGLYSLSSVVTVPSSSLGTQTYICNVNHKPSNTKVDKKVEPKSC
chain 3: DIQMTQSPSSLSASVGDRVTITCKASRNIERQLAWYQQKPGQAPELLIYQASRKESGVPDRFSGSRYGTDFTLTISSLQPEDIATYYCQQYSDPPLTFGGGTKVEIKRTVAAPSVFIFPPSDEQLKSGTASVVCLLNNFYPREAKVQWKVDNALQSGNSQESVTEQDSKDSTYSLSSTLTLSKADYEKHKVYACEVTHQGLSSPVTKSFNRGEC
notes: leader left out; also called FIT-Ig 014a
In the case of B4, the Kd [5] is reported as 9910 pM, the koff [5] is reported as 0.000332 s⁻¹ and the kon [5] is reported as 33500 M⁻¹ s⁻¹. It also gave a Kd [6] of 10000 pM, a koff [6] of 0.000776 s⁻¹ and a kon [6] of 77500 M⁻¹ s⁻¹.

B5: FIT14-Ig Factor IXa/Factor X (bispecific antibody, human IgG4 S228P, kappa)
chain 1: B4 chain 1
chain 2: B4 chain 2
chain 3: B4 chain 3
notes: leader left out; also called FIT-Ig 014; FIT-Ig 14
Work on B5 yielded a Kd (Factor IXa) of 9900 pM.

B6: Factor IXa mAb (antibody, V domains shown)
VH: QVQLVESGGGLVQPGGSLRLSCAASGFTFSYYDIQWVRQAPGKGLEWVSSISPSGQSTYYRREVKGRFTISRDNSKNTLYLQMNSLRAEDTAVYYCARRTGREYGGGWYFDYWGQGTLVTVSS
VL: DIQMTQSPSSLSASVGDRVTITCKASRNIERQLAWYQQKPGQAPELLIYQASRKESGVPDRFSGSRYGTDFTLTISSLQPEDIATYYCQQYSDPPLTFGGGTKVEIK
notes: parental mAb; also called Factor IX mAb; mAb FIX
B6 was tested, and the Kd (Factor IXa) was 13000 pM, the kon (Factor IXa) was 27400 M⁻¹ s⁻¹ and the Kd [5] was 13000 pM. It also gave a koff [5] of 0.000355 s⁻¹ and a kon [5] of 27400 M⁻¹ s⁻¹.

B7: Factor X mAb (antibody, V domains shown)
VH: QVQLVQSGSELKKPGASVKVSCKASGYTFTDNNMDWVRQAPGQGLEWMGDINTRSGGSIYNEEFQDRVIMTVDKSTDTAYMELSSLRSEDTATYHCARRKSYGYYLDEWGEGTLVTVSS
VL: B6 VL
notes: parental mAb; also called mAb FX; Factor X Ab
Work on B7 yielded a Kd [6] of 45100 pM, a koff [6] of 0.00142 s⁻¹ and a kon [6] of 31500 M⁻¹ s⁻¹.

B8: anti-hIL-20 mAb (clone 15D2) (antibody, V domains shown)
VH: QVQLVQSGAEVKRPGASVKVSCKASGYTFTNDIIHWVRQAPGQRLEWMGWINAGYGNTQYSQNFQDRVSITRDTSASTAYMELISLRSEDTAVYYCAREPLWFGESSPHDYYGMDVWGQGTTVTVSS
VL: AIQLTQSPSSLSASVGDRVTITCRASQGISSALAWYQQKPGKAPKLLIYDASSLESGVPSRFSGSGSGTDFTLTISSLQPEDFATYYCQQFNSYPLTFGGGTKVEIK
notes: parental mAb
B8 was tested, and the “Neutralization Potency IC50 (IL-20R+ BAF3 cell proliferation)” value (recombinant human IL-20 [1]) was 50 pM, the Kd (recombinant human IL-20 [3]) was 50 pM and the koff (recombinant human IL-20 [3]) was 8.3e-05 s⁻¹. For the same binder, the kon (recombinant human IL-20 [3]) was 1.7e+06 M⁻¹ s⁻¹.

B9: anti-IL-17 mAb (clone LY) (antibody, V domains shown)
VH: QVQLVQSGAEVKKPGSSVKVSCKASGYSFTDYHIHWVRQAPGQGLEWMGVINPMYGTTDYNQRFKGRVTITADESTSTAYMELSSLRSEDTAVYYCARYDYFTGTGVYWGQGTLVTVSS
VL: DIVMTQTPLSLSVTPGQPASISCRSSRSLVHSRGNTYLHWYLQKPGQSPQLLIYKVSNRFIGVPDRFSGSGSGTDFTLKISRVEAEDVGVYYCSQSTHLPFTFGQGTKLEIK
notes: parental mAb
In the case of B9, the “Neutralization Potency IC50 (GROα production by Hs27 cells)” value (recombinant human IL-17 [2]) is reported as 101 pM, the Kd (recombinant human IL-17 [4]) is reported as 21.8 pM and the koff (recombinant human IL-17 [4]) is reported as 1.8e-05 s⁻¹. It also gave a kon (recombinant human IL-17 [4]) of 824000 M⁻¹ s⁻¹.
